The values below come from the supplement of paper PMC9170038.

Data set [1] concerns MS2 coat protein. Description: apparent KD of MS2 coat protein, switch OFF state (with FMN for OFF switches, without FMN for ON switches); designed switch direction (-1 OFF switch, 1 ON switch): -1; higher = weaker reporter binding. The settings on record: FMN input: 0 or 200 uM; Eterna round: R93 (includes R88 designs). Put shortly: (§1)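 Titrations with SNAP-549-labelled MS2 coat protein ran in twofold steps from 0.7 or 1.5 nM to 3 µM, each step taking 0.8–1.5 h at the start and 10–20 min toward the end. The targets were designed RNA switches transcribed on-chip from Illumina sequencing clusters, held in 100 mM Tris-HCl pH 7.5, 80 mM KCl, 4 mM MgCl2, without or with constant ligand. Apparent KD was taken per design as the median of normalised cluster binding-curve fits.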

Data set [2] deals with MS2 coat protein. Put plainly: apparent KD of MS2 coat protein, switch ON state; designed switch direction (-1 OFF switch, 1 ON switch): -1; higher = weaker reporter binding. The conditions noted are these: FMN input: 0 or 200 uM; Eterna round: R93 (includes R88 designs). Put shortly: as §1

“AAAAAGGCAGGAUAUGCAUACUCACGGAAAAAAAGGUUGGGACAUGAGGAUCACCCAUGUAGAAGGGCUAAAAA [Dora Explored 15 - Jieux - Exclusion 2]”: the “apparent KD of MS2 coat protein” value came out at 60.8 nM in data set [1] and 85.2 nM in data set [2].
Taken in the same sequence, the figures for “AAAAAGGCAGGAUAUGCAUACUCACGGAAAAACUGGAUGGUACAUGAGGAUCACCCAUGUAGAAGGGCUAAAAA [Dora Explored 16 - Jieux - Exclusion 2]” were 44.3 nM and 55 nM.
Turning to “AAAAAGGGAGGAUAUACAUGAGGAUCACCCAUGUAAAAAAAAAAAAAAAAAAGGGAAGGUAGAAGGCCCAAAAA [Excls3-I]”, the “apparent KD of MS2 coat protein” value was 21.1 nM in data set [1] and 64.6 nM in data set [2].
Turning to “AAAAAGGGAGGAUAUACAUGAGGAUCACCCAUGUAUCAGACGAAAAAGAGUCUGAAGUGUAGAAGGCCCAAAAA [Exclusion3-cac2]”, the “apparent KD of MS2 coat protein” value is 25.6 nM in data set [1] and 20 nM in data set [2].
Taken in the same sequence, the figures for “AAAAAGGGAGGAUAUGCAUAAAAAAAAAAAAAAAAAAAAAAACAUGAGGAUCACCCAUGUAGAAGGCCCAAAAA [Dora Explored - Jieux - Exclusion 2]” were 36.3 nM and 58 nM.
With “AAAAAGGGAGGAUAUGCAUACACACAAAAAAAAAAACCGGGACAUGAGGAUCACCCAUGUAGAAGGCCCAAAAA [Dora Explored 6 - Jieux - Exclusion 2]”, the entries for the “apparent KD of MS2 coat protein” value in data set [1] and in data set [2] were 25 nM and 33.5 nM, respectively.
Take “AAAAAGUAAGGAUAUACAAAAAUAAAAAAUUAUGAUAAAAAACAUGAGGAUCACCCAUGUAGAAGGUACGAAAA [AJ 3]”: the “apparent KD of MS2 coat protein” value in data set [1] worked out at 26.7 nM; in data set [2], 27.5 nM.
Taken in the same sequence, the figures for “AAAAAGUAAGGAUAUAUAAAAAUAAAAAAUUAUGAUAAAAAACAUGAGGAUCACCCAUGUAGAAGGUACGAAAA [AJ 2]” were 25.6 nM and 26.2 nM.
Taken in the same sequence, the figures for “AAAAAGUCAGGAUAUACAGAAAAAAAAACGAAAAAAAAUCUGUAGAAGGGACAUGAGGAUCACCCAUGUUAAAA [Ex 4 May 13]” were 26.8 nM and 41.5 nM.
Turning to “AAAAAGUCAGGAUAUACAGGAGUGCGAAAGCACAAAAAAAAACAUGAGGAUCACCCAUGUAGAAGGGACAAGAA [Married to this design, 61% 6]”, the results for the “apparent KD of MS2 coat protein” value in data set [1] and in data set [2] were 33.1 nM and 52.7 nM, respectively.
Taken in the same sequence, the figures for “AAAAAGUCAGGAUAUACGAAAGUGCGAAAGCACAAAAGGAAACAUGAGGAUCACCCAUGUAGAAGGGACAAGAA [Married to this design, 61% 1]” were 32.8 nM and 45.4 nM.
Taken in the same sequence, the figures for “AAAAAGUCAGGAUAUACGAACAUGUCAAAAGACGUGAAGGGACAUGAGGAUCACCCAUGUAGAAGGGACAAGAA [JL Stem Breaker 20]” were 39.6 nM and 85.2 nM.
Taken in the same sequence, the figures for “AAAAAGUCAGGAUAUACGUACAUGUCGAAAGACGUGAAGGGACAUGAGGAUCACCCAUGUAGAAGGGACAAGAA [Mat - Exclusion 2 - JL mod - D78]” were 91.8 nM and 99.6 nM.
Consider “AAAAAGUCAGGAUAUAUCAAAGCCUAUGAAAGUGGGAAAGGGUAGAAGGGACAUGAGGAUCACCCAUGUAAAAA [Banishment 10 - Jieux - Exclusion 4]”, for which the “apparent KD of MS2 coat protein” value in data set [1] turned out to be 38.5 nM; in data set [2] it was 62.3 nM.
Taken in the same sequence, the figures for “AAAAAGUCAGGAUAUCGGAAAAAAAAAAAAAAAAGGAGAAACGAGAAGGGACAUGAGGAUCACCCAUGUAAAAA [No Frills]” were 44 nM and 117 nM.
Taken in the same sequence, the figures for “AAAAAGUCAGGAUAUCGGAAAAAAAAAAUAAAAAAAAAAAACGAGAAGGGACAUGAGGAUCACCCAUGUAUGAC [Mat - Exclusion 4 - Mayanna - D112]” were 41.3 nM and 37.4 nM.
Taken in the same sequence, the figures for “AAAAAGUCAGGAUAUGCAUGAGCAAAAAAAAAAAAGCUCAUGCAGAAGGGACAUGAGGAUCACCCAUGUAAAAA [Ex 4 May 10]” were 48.6 nM and 70.2 nM.
In the case of “AAAAAGUCAGGAUAUGGCAAAGGUCACGAAAGUGACAAAGGCUAGAAGGGACAUGAGGAUCACCCAUGUAAAAA [Fiskers Exclusion 4 D3]”, the “apparent KD of MS2 coat protein” value in data set [1] was 35.3 nM; in data set [2], 53.4 nM.
Taken in the same sequence, the figures for “AAAAAGUCAGGAUAUGUCAAAAGUCACAAAAGUGACAAAAGACAGAAGGGACAUGAGGAUCACCCAUGUAAAAA [Mod of Eli]” were 46.1 nM and 53.1 nM.
In the case of “AAAAAGUGAGGAUAUACAUGAGGAUCACCCAUGUAAAAGGUCGCGGGAGGGAGGGACGGUAGAAGGCGCAAAAA [Excls3-VII]”, the “apparent KD of MS2 coat protein” value came out at 22.2 nM in data set [1] and 15.7 nM in data set [2].
Taken in the same sequence, the figures for “AAAAAGUGAGGAUAUACAUGAGGAUCACCCAUGUGAAAUCGGAAAAAAAAGGAAAAAAGUAGAAGGCACAAAAA [Mat - Mod of Eli]” were 19.3 nM and 17.1 nM.
Taken in the same sequence, the figures for “AAAAAGUGAGGAUAUACGAGGAGAAACAACAAACAAACAAAACAUGAGGAUCACCCAUGUAGAAGGCACAAAAA [Ex 2 sub 3]” were 28.6 nM and 22.4 nM.
Taken in the same sequence, the figures for “AAAAAGUGAGGAUAUGAAAAUAAAAAAAAAAAAAAAAUAAAUCAGAAGGCACAUGAGGAUCACCCAUGUAAAAA [JR_Exc004_Sub1201]” were 38 nM and 29.8 nM.
Take “AAAAAGUGAGGAUAUGCGAAGGCGUCUGAUAGACGAGGCUAGCAGAAGGCACAUGAGGAUCACCCAUGUGGGAA [Mat - Mod of Nando 64% 3]”: the “apparent KD of MS2 coat protein” value is 98.5 nM in data set [1] and 53.8 nM in data set [2].
Taken in the same sequence, the figures for “AAAAAGUGAGGAUAUGCGCUGUCAAGUAGACACGAGCAGUCGUAGAAGGCACAUGAGGAUCACCCAUGUUCAAA [EX4 Malc#22]” were 16 nM and 25.4 nM.
As to “AAAAAGUGAGGAUAUGCGCUGUCAAGUAGACACGAGCAGUCGUAGAAGGCACAUGAGGAUCACCCAUGUUUAAA [EX4 Malc#23]”, the “apparent KD of MS2 coat protein” value came out at 19.4 nM in data set [1] and 28.5 nM in data set [2].
Taken in the same sequence, the figures for “AAAAAGUGAGGAUAUGUACGAAAAAAUAAAAAAAUAAAAGUACAGAAGGCACAUGAGGAUCACCCAUGUGAAAA [EX4 397: Minimal 10]” were 22.9 nM and 27.4 nM.
Taken in the same sequence, the figures for “AAAAAGUGAGGAUAUUCGGAAGGGAAAGCGCAAACCCAACCGAAGAAGGCACAUGAGGAUCACCCAUGUGGAAA [Ecls4-III 65% - Early + late G segment 2]” were 26.8 nM and 32.1 nM.
As to “AAAAAGUUAGGAUAUACAUGAGGAUCACCCAUGUACACAUAUGGAGAAUAUGGUAGUAGUAGAAGGGACAAAAA [EX2 Malc#15]”, the “apparent KD of MS2 coat protein” value in data set [1] was found to be 31.1 nM; in data set [2] it was 27.1 nM.
Taken in the same sequence, the figures for “AAAAAGUUAGGAUAUACAUGAGGAUCACCCAUGUGCACGUAUGGAGAAUAUGGUGGUGGUAGAAGGGACAAAAA [EX2 Malc#19]” were 65.5 nM and 43.2 nM.
Taken in the same sequence, the figures for “AAAAAUCGAGGAUAUACAUGAGGAUCACCCAUGUCAGAAAAUGACUACACAAAAGAAAGUAGAAGGCGAUAAAG [Mat - Exclusion 3 - Mayanna mod - D131]” were 64.1 nM and 32 nM.
As for “AAAAAUCGAGGAUAUACAUGAGGAUCACCCAUGUGGGACCAAGAAAACACAAAAGAAAGUAGAAGGCGAUAAAA [Ex 3 May 23]”, the “apparent KD of MS2 coat protein” value in data set [1] is 76.4 nM; in data set [2] it was 21.9 nM.
Taken in the same sequence, the figures for “AAAAAUCUAGGAUAUACAUGAGGAUCACCCAUGUAAGAAAAUGAUUACACAAAAGAAAGUAGAAGGAGAUAAAA [Ex 3 May 19]” were 18.4 nM and 17.4 nM.
In the case of “AAAAAUGCAGGAUAUACAUGAGGAUCACCCAUGUUAGACCUGAAAAAAGGGAAAGAAAGUAGAAGGGCAUAAAA [Ex 3 May 30]”, the figures for the “apparent KD of MS2 coat protein” value in data set [1] and in data set [2] were 11.2 nM and 12.7 nM, respectively.
With “AAAAAUGCAGGAUAUACGAACAUGUCGAAAGACGUGAAGGGACAUGAGGAUCACCCAUGUAGAAGGGUAAAGAA [Mat - Exclusion 2 - JL mod - D74]”, the “apparent KD of MS2 coat protein” value in data set [1] came to 62.5 nM; in data set [2], 264 nM.
For “AAAAAUGGAGGAUAUACAUGAGGAUCACCCAUGUGUAACUAUACUAAACACAAAAAAAGUAGAAGGCCAAAAAA [Gilly Gone Silly 8 - Jieux - Exclusion 3]”, the “apparent KD of MS2 coat protein” value in data set [1] amounted to 50 nM; in data set [2], 32.7 nM.
On to “AAAAAUGGAGGAUAUACAUGAGGAUCACCCAUGUGUAACUAUACUAAGCGCUCCUCAGGUAGAAGGCCAAAAAA [Gilly Gone Silly 15 - Jieux - Exclusion 3]”, for which the “apparent KD of MS2 coat protein” value in data set [1] stood at 48 nM; in data set [2] it was 70.9 nM.
On to “AAAAAUUGAGGAUAUACGAACAUGUCAAAAGACGUGAAGGGACAUGAGGAUCACCCAUGUAGAAGGCGAAAAAA [JL Loop Breaker 2]”, for which the “apparent KD of MS2 coat protein” value stood at 19.7 nM in data set [1] and 41.3 nM in data set [2].
Taken in the same sequence, the figures for “AAAAAUUGAGGAUAUACGUACAUGUCAAAAGACGUGAAGGGACAUGAGGAUCACCCAUGUAGAAGGCGAAAAAA [JL Neck Breaker 12]” were 13.6 nM and 38.8 nM.
